Test results published in patent US20100311648A1 (AstraZeneca / MedImmune, published 2010).
Read-outs that look alike come from different tables or passages of the source. Positions of bridges follow the written chain, without caps; N, C: chain ends. Non-standard residues stand in square brackets, D forms with d. dPhe(2-CF3) = N[C@H](Cc1ccccc1C(F)(F)F)C(=O)O; dPhe(4-CN) = N#Cc1ccc(C[C@@H](N)C(=O)O)cc1; dPhe(3-Cl) = N[C@H](Cc1cccc(Cl)c1)C(=O)O; dPhe(2-Cl) = N[C@H](Cc1ccccc1Cl)C(=O)O; dPhe(2-Me) = Cc1ccccc1C[C@@H](N)C(=O)O; dPhe(4-F) = N[C@H](Cc1ccc(F)cc1)C(=O)O; dPhe(2-F) = N[C@H](Cc1ccccc1F)C(=O)O; Orn = NCCC[C@H](N)C(=O)O; Dab = NCC[C@H](N)C(=O)O

Assays:
[1] = molecular target: T1, human melanocortin-4 receptor (human, UniProt P32245 1-332); test: cell-based or functional assay
melanocortin-1 receptor = molecular target: T2, melanocortin-1 receptor (mouse (B-16 melanoma cells); in some …, UniProt Q01727 1-315); test: [I125]-NDP-α-MSH competition, MC1-R membranes
T2 construct: whole, on cells; membrane homogenates; also called MC1-R; mouse B16 MC1-R
Experimental: (§1) A competitive inhibition binding assay was performed for exemplified peptides according to the invention using membrane homogenates prepared from HEK-293 cells that express recombinant hMC4-R, hMC3-R, or hMC5-R, and from B-16 mouse melanoma cells (containing endogenous MC1-R). In some instances, HEK-293 cells that express recombinant hMC1-R were employed. Assays were performed in 96 well GF/B Millipore multiscreen filtration plates (MAFB NOB10) pre-coated with 0.5% bovine serum albumin (Fraction V). […] After incubation for 60 minutes at 37° C., the assay mixture was filtered and the membranes washed three times with ice-cold buffer. Filters were dried and counted in a gamma counter for bound radioactivity. […] Each assay was conducted in triplicate and the actual mean values are described, with results less than 0% reported as 0%. Ki values for test peptides of the present invention were determined using Graph-Pad Prism® curve-fitting software.

[2] = molecular target: T1, human melanocortin-4 receptor; test: [I125]-NDP-α-MSH competition, hMC4-R HEK-293 membranes
Experimental: as §1

[3] = molecular target: T1, human melanocortin-4 receptor; test: Ki of Table 1; receptor not given, taken as hMC4-R
[4] = molecular target: T1, human melanocortin-4 receptor; test: cell-based or functional assay; remark: listed apart in the source

T1 sequence (P32245 whole entry): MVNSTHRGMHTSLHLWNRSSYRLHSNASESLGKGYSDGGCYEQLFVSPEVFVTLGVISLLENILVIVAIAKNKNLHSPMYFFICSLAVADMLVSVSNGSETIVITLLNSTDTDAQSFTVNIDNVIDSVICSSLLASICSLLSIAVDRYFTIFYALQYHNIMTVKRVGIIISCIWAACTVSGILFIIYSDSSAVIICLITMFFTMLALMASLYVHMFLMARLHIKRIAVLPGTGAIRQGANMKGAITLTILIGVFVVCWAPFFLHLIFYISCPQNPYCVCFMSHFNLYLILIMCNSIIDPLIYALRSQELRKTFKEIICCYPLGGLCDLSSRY
T2 sequence (Q01727 whole entry): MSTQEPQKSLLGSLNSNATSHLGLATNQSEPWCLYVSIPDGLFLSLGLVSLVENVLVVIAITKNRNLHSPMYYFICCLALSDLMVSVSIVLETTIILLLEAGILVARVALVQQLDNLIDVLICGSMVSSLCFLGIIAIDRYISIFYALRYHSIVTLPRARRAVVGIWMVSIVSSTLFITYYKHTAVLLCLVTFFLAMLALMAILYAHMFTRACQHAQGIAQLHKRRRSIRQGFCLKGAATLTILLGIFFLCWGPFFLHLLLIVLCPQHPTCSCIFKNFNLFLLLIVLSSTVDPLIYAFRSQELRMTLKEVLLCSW

Binder	EC50, cAMP, 0.1 ng/mL Doxycycline [1]	EC50, cAMP, 10 ng/mL Doxycycline [1]	Intrinsic Activity, cAMP, 0.1 ng/mL Doxycycline [1]	Intrinsic Activity, cAMP, 10 ng/mL Doxycycline [1]	Ki (melanocortin-1 receptor)	Ki [2]	Ki [3]	EC50, cAMP, 0.1 ng/mL Doxycycline [4]
XDQXRWK (N-terminal Ac; D-Arg 1; D-Phe(2-Cl) 4; lactam Asp 2-Lys 7; C-terminal NH2, also called No. 79) [Ac-D-Arg-cyclo(Asp-Gln-D-Phe(2-Cl)-Arg-Trp-Lys)-NH2]	4 nM	0.2 nM	48%	85%	395 nM	10 nM	–	–
Ac-R[Orn]N[dPhe(2-Me)]RWE-NH2 (lactam 2-7, also called No. 74) [Ac-Arg-cyclo(Orn-Asn-D-Phe(2-Me)-Arg-Trp-Glu)-NH2]	0.943 nM	0.11 nM	68%	100%	405 nM	5 nM	–	–
Ac-RE[Dab][dF]RW[Orn]-NH2 (lactam 2-7) [Ac-Arg-cyclo(Glu-Dab-D-Phe-Arg-Trp-Orn)-NH2]	–	–	–	–	–	–	0.65 nM	0.33 nM
Ac-REQ[dPhe(4-CN)]RW[Orn]-OH (lactam 2-7, also called No. 86) [Ac-Arg-cyclo(Glu-Gln-D-Phe(4-CN)-Arg-Trp-Orn)-OH]	9 nM	0.483 nM	36%	96%	3970 nM	40 nM	–	–
Ac-REE[dPhe(4-CN)]RW[Orn]-NH2 (lactam 2-7; SMILES CC(=O)N[C@@H](CCCNC(=N)N)C(=O)N[C@H]1CCC(=O)NCCC[C@@H](C(N)=O)NC(=O)[C@H](Cc2c[nH]c3ccccc23)NC(=O)[C@H](CCCNC(=N)N)NC(=O)[C@@H](Cc2ccc(C#N)cc2)NC(=O)[C@H](CCC(=O)O)NC1=O) [Ac-Arg-cyclo(Glu-Glu-D-Phe(4-CN)-Arg-Trp-Orn)-NH2]	–	9 nM	3%	59%	10000 nM	128 nM	–	–
Ac-REP[dPhe(4-CN)]RW[Orn]-NH2 (lactam 2-7; SMILES CC(=O)N[C@@H](CCCNC(=N)N)C(=O)N[C@H]1CCC(=O)NCCC[C@@H](C(N)=O)NC(=O)[C@H](Cc2c[nH]c3ccccc23)NC(=O)[C@H](CCCNC(=N)N)NC(=O)[C@@H](Cc2ccc(C#N)cc2)NC(=O)[C@@H]2CCCN2C1=O, also called No. 39) [Ac-Arg-cyclo(Glu-Pro-D-Phe(4-CN)-Arg-Trp-Orn)-NH2]	–	1 nM	4%	79%	1550 nM	4 nM	–	–
Ac-RET[dPhe(4-CN)]RW[Orn]-NH2 (lactam 2-7; SMILES CC(=O)N[C@@H](CCCNC(=N)N)C(=O)N[C@H]1CCC(=O)NCCC[C@@H](C(N)=O)NC(=O)[C@H](Cc2c[nH]c3ccccc23)NC(=O)[C@H](CCCNC(=N)N)NC(=O)[C@@H](Cc2ccc(C#N)cc2)NC(=O)[C@H]([C@@H](C)O)NC1=O, also called No. 44) [Ac-Arg-cyclo(Glu-Thr-D-Phe(4-CN)-Arg-Trp-Orn)-NH2]	11 nM	0.617 nM	22%	99%	1620 nM	18 nM	–	–
Ac-REP[dPhe(4-F)]RW[Orn]-OH (lactam 2-7; SMILES CC(=O)N[C@@H](CCCNC(=N)N)C(=O)N[C@H]1CCC(=O)NCCC[C@@H](C(=O)O)NC(=O)[C@H](Cc2c[nH]c3ccccc23)NC(=O)[C@H](CCCNC(=N)N)NC(=O)[C@@H](Cc2ccc(F)cc2)NC(=O)[C@@H]2CCCN2C1=O) [Ac-Arg-cyclo(Glu-Pro-D-Phe(4-F)-Arg-Trp-Orn)-OH]	18 nM	0.725 nM	30%	97%	730 nM	30 nM	–	–
Ac-REP[dPhe(2-F)]RW[Orn]-NH2 (lactam 2-7; SMILES CC(=O)N[C@@H](CCCNC(=N)N)C(=O)N[C@H]1CCC(=O)NCCC[C@@H](C(N)=O)NC(=O)[C@H](Cc2c[nH]c3ccccc23)NC(=O)[C@H](CCCNC(=N)N)NC(=O)[C@@H](Cc2ccccc2F)NC(=O)[C@@H]2CCCN2C1=O, also called No. 66) [Ac-Arg-cyclo(Glu-Pro-D-Phe(2-F)-Arg-Trp-Orn)-NH2]	5 nM	0.265 nM	32%	88%	95 nM	6 nM	–	–
Ac-RES[dPhe(4-F)]RW[Orn]-NH2 (lactam 2-7; SMILES CC(=O)N[C@@H](CCCNC(=N)N)C(=O)N[C@H]1CCC(=O)NCCC[C@@H](C(N)=O)NC(=O)[C@H](Cc2c[nH]c3ccccc23)NC(=O)[C@H](CCCNC(=N)N)NC(=O)[C@@H](Cc2ccc(F)cc2)NC(=O)[C@H](CO)NC1=O, also called No. 65) [Ac-Arg-cyclo(Glu-Ser-D-Phe(4-F)-Arg-Trp-Orn)-NH2]	1 nM	0.085 nM	58%	93%	43 nM	5 nM	–	–
Ac-RES[dPhe(4-CN)]RW[Orn]-NH2 (lactam 2-7; SMILES CC(=O)N[C@@H](CCCNC(=N)N)C(=O)N[C@H]1CCC(=O)NCCC[C@@H](C(N)=O)NC(=O)[C@H](Cc2c[nH]c3ccccc23)NC(=O)[C@H](CCCNC(=N)N)NC(=O)[C@@H](Cc2ccc(C#N)cc2)NC(=O)[C@H](CO)NC1=O, also called No. 45) [Ac-Arg-cyclo(Glu-Ser-D-Phe(4-CN)-Arg-Trp-Orn)-NH2]	–	0.45 nM	12%	87%	10000 nM	10 nM	–	–
Ac-RES[dPhe(2-Cl)]RW[Orn]-NH2 (lactam 2-7; SMILES CC(=O)N[C@@H](CCCNC(=N)N)C(=O)N[C@H]1CCC(=O)NCCC[C@@H](C(N)=O)NC(=O)[C@H](Cc2c[nH]c3ccccc23)NC(=O)[C@H](CCCNC(=N)N)NC(=O)[C@@H](Cc2ccccc2Cl)NC(=O)[C@H](CO)NC1=O, also called No. 31) [Ac-Arg-cyclo(Glu-Ser-D-Phe(2-Cl)-Arg-Trp-Orn)-NH2]	7 nM	0.313 nM	33%	98%	300 nM	8 nM	–	–
Ac-REP[dPhe(4-F)]RW[Orn]-NH2 (lactam 2-7; also: acetate salt, acetate salt form; also called Ex 67) [Ac-Arg-cyclo(Glu-Pro-D-Phe(4-F)-Arg-Trp-Orn)-NH2]	1 nM	0.14 nM	38%	99%	130 nM	5 nM	–	–
XDQXRWK (N-terminal Ac; D-Arg 1; D-Phe(3-Cl) 4; lactam Asp 2-Lys 7; C-terminal NH2, also called No. 80) [Ac-D-Arg-cyclo(Asp-Gln-D-Phe(3-Cl)-Arg-Trp-Lys)-NH2]	6 nM	0.65 nM	13%	86%	1750 nM	7 nM	–	–
Ac-REQ[dPhe(3-Cl)]RW[Orn]-NH2 (lactam 2-7, also called No. 38) [Ac-Arg-cyclo(Glu-Gln-D-Phe(3-Cl)-Arg-Trp-Orn)-NH2]	2 nM	0.258 nM	31%	97%	290 nM	3 nM	–	–
Ac-REQ[dPhe(2-CF3)]RW[Orn]-NH2 (lactam 2-7, also called No. 114) [Ac-Arg-cyclo(Glu-Gln-D-Phe(2-CF3)-Arg-Trp-Orn)-NH2]	1 nM	0.185 nM	73%	117%	93 nM	8 nM	–	–
Ac-R[Orn]Q[dPhe(2-CF3)]RWE-NH2 (lactam 2-7, also called No. 115) [Ac-Arg-cyclo(Orn-Gln-D-Phe(2-CF3)-Arg-Trp-Glu)-NH2]	0.8 nM	0.17 nM	54%	108%	235 nM	4 nM	–	–
Ac-R[Orn]N[dPhe(2-F)]RWE-NH2 (lactam 2-7, also called No. 71) [Ac-Arg-cyclo(Orn-Asn-D-Phe(2-F)-Arg-Trp-Glu)-NH2]	1 nM	0.085 nM	–	–	335 nM	9 nM	–	–
